Usually stoichiometry N stands for the number of molecules, sites or subunits per partner or assembly. As a reminder, the Kd is the equilibrium constant for the complex coming apart.

What all share (assay): ITC
In general terms: Isothermal titration calorimetry measures the heat released or taken up as one component is titrated into another.

Assay [1] deals with yeast Hsp90 (wild type, His-tagged) (yeast) (UniProt P02829).
In assay [2] the target is yeast Hsp90 M705V (His-tagged) (yeast) (UniProt P02829).
Assay [3] deals with Tah1 (TPR-containing protein associated with Hsp90) (S. cerevisiae) (UniProt P25638).
Sequence of Tah1 (TPR-containing protein associated with Hsp90) (S. cerevisiae) (P25638 whole entry): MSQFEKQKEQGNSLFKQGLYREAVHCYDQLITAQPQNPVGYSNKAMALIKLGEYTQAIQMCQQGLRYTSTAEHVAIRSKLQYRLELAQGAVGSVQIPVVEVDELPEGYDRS

Sequence of mouse CHIP (C-terminal of Hsp70-interacting protein) (Q9WUD1 whole entry): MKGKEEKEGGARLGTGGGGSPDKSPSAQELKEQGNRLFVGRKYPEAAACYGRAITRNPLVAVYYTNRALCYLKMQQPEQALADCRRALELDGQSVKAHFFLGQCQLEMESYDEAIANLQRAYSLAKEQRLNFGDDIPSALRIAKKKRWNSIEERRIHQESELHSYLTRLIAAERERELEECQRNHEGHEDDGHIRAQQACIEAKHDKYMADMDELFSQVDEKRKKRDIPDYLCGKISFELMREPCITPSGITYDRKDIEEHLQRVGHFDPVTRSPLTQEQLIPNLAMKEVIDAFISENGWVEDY
Sequence of C-terminal domain of Sti1 (cSti1), His-tagged (domain or fragment) (P15705 133-581): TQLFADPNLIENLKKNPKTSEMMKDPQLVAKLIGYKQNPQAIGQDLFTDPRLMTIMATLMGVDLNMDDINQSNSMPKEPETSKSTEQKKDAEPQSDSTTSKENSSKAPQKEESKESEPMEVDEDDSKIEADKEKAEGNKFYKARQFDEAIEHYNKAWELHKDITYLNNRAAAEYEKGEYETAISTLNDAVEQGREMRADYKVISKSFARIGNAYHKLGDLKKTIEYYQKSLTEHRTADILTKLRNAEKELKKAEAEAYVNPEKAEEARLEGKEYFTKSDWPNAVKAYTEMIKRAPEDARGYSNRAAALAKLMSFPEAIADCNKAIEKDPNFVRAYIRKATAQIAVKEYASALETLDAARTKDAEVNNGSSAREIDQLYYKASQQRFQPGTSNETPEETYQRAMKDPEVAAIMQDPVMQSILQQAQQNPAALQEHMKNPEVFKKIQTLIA

“C-terminal domain of Sti1 (cSti1), His-tagged (domain or fragment)” gave a stoichiometry N in assay [1] of 0.88.
As to “mouse CHIP (C-terminal of Hsp70-interacting protein) (from UniProt Q9WUD1 1-304) (natural protein)”, the stoichiometry N in assay [1] turned out to be 1.2. In assay [2], the Kd came out at 6.7 µM and the stoichiometry N was 1.1.
With “… decapeptide (Ssa1 C-terminal decapeptide, Val at -4 replaced by Ala)”, in assay [3], the Kd is 14.8 µM and the stoichiometry N amounted to 1.1.
The matching figures for “… decapeptide (Ssa1 C-terminal decapeptide, Val at -4 replaced by Met)”: 4.2 µM and 0.98.
Take “… decapeptide (yeast Hsp90 C-terminal decapeptide, Met at -4 replaced by Ala)”: in assay [3], the Kd came out at 3.3 µM and the stoichiometry N is 0.89.
As for “… decapeptide (yeast Hsp90 C-terminal decapeptide, Met at -4 replaced by Val)”, in assay [3], the Kd was 9.8 µM and the stoichiometry N came to 1.1.
In assay [3], “… decapeptide (yeast Hsp90 C-terminal decapeptide, TE replaced by Ala-Ala)” came in with a Kd of 0.75 µM and a stoichiometry N of 0.81.

The values above are taken from PMC2865030.
